Test [1] deals with T1, activin A (human, UniProt P08476 311-426).
T1 sequence (looked up): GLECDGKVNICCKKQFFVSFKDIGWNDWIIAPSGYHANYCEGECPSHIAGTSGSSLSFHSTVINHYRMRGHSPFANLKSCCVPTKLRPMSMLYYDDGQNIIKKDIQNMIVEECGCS
As to the kind of experiment: cell-based or functional assay.

The target in the next test is T2, BMP9 (human, UniProt Q9UK05 320-429).
T2 sequence (looked up): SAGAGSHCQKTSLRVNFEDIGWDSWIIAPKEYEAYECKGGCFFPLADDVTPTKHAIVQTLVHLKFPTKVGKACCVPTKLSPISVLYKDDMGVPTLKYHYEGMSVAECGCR
In words: cell-based or functional assay.

Test [2] addresses T3, growth differentiation factor 8 (GDF8, or myostatin) (human, UniProt O14793 267-375).
T3 sequence (looked up): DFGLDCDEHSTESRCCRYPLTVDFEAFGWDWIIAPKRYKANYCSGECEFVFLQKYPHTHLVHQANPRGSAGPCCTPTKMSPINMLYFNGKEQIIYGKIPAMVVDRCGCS
In words: cell-based or functional assay.

The target of a further test is T4, activin B (human, UniProt P09529 293-407).
T4 sequence (looked up): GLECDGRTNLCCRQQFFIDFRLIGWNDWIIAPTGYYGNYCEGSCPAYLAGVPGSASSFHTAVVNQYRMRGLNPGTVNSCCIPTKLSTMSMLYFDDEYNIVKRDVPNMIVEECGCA
In words: cell-based or functional assay.

Test [3] deals with T5, GDF11 (human, UniProt O95390 299-407).
T5 sequence (looked up): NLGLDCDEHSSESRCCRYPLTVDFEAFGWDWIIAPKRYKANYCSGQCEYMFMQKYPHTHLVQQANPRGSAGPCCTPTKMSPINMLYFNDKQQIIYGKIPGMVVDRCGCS
In words: cell-based or functional assay.

A further test addresses T6, BMP10 (human, UniProt O95393 317-424).
T6 sequence (looked up): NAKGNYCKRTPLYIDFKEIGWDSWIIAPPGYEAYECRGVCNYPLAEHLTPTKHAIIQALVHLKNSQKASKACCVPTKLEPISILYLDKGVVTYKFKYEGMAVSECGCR
As to the kind of experiment: cell-based or functional assay.

In another test the target is T7, BMP7 (human, UniProt P18075 293-431).
T7 construct: source: bought: R&D Systems
T7 sequence (looked up): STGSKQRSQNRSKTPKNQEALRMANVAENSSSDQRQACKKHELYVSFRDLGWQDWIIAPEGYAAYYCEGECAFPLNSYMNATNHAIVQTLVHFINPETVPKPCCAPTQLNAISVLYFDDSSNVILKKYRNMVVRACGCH
As to the kind of experiment: SPR; same experiment as a1 (Biacore 8K, 37 °C, receptor dimers captured by anti-human Fc, HBS-EP+ with 350 mM NaCl added and 0.5 mg/mL BSA) but fitted with a bivalent analyte model (bold cells of Table 1); the first binding step is the one considered. The settings on record: both partners purified. (In general: Surface plasmon resonance follows binding to a sensor surface in real time, without labels.)

The target of another test is T8, BMP6 (human, UniProt P22004 375-513).
T8 construct: source: bought: R&D Systems
T8 sequence (looked up): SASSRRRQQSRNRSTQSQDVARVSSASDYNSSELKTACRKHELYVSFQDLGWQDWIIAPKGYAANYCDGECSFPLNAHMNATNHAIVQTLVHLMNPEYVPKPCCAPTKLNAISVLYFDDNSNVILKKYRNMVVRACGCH
In words: SPR; Biacore 8K, 37 °C; Fc-fusion receptor dimers captured by anti-human Fc antibody on a CM5 chip (100-150 RU); ligands injected in two-fold dilution series (300 s association, 600 s dissociation); HBS-EP+ supplemented with 350 mM NaCl and 0.5 mg/mL BSA; 1:1 Langmuir model with a term for mass transport. The settings on record: both partners purified.

Test [4] deals with T1, activin A. The description is as above. The settings on record: both partners purified.
Test [5] concerns the target T5, GDF11. The description is as above. The settings on record: both partners purified.

B1: IIB-Fc:IIB-Fc homodimer (human ActRIIB ECD fused to human IgG1 Fc) (Fc fusion, UniProt Q13705-1 19-134, looked up)
chain: SGRGEAETRECIYYNANWELERTNQSGLERCEGEQDKRLHCYASWRNSSGTIELVKKGCWLDDFNCYDRQECVATEENPQVYFCCCEGNFCNERFTHLPEAGGPEVTYEPPPTAPT
notes: activin receptor type IIB (ActRIIB) extracellular domain, human, aa 19-134 of NP_001097.2; Chains linked by disulfide bonds between the Fc domains; a form with murine IgG2a Fc was used only in mice; also called ActRIIB-Fc homodimer; ActRIIB-Fc; not shown: Fc (human IgG1), C-terminal, kept
Usually koff stands for a measure of how fast the partners let go of each other. Broadly, the kon is the rate constant with which the complex forms. A low value points to slower complex formation. In the case of B1, the “IC50 of the trap for inhibition of ligand-induced SMAD2/3 (CAGA12) luciferase reporter signalling in A204 cells (ligand with the cells' receptors)” value with activin A [1] was 0.11 nM; in test [2] it was 0.76 nM; with activin B, 0.06 nM; with GDF11 [3], 0.09 nM. Besides, the “IC50 of the trap for inhibition of ligand-induced SMAD1/5/8 (BRE) luciferase reporter signalling in T98G cells (ligand with the cells' receptors)” value in the test with BMP9 turned out to be 0.57 nM; with BMP10, 0.03 nM. Further, the figures for the Kd with BMP7 and in the test with BMP6 were above 10 nM and 0.348 nM, respectively. Besides, the values for the koff with BMP7 and in the test with BMP6 were above 0.01 s⁻¹ and 0.00273 s⁻¹, respectively. The kon in the test with BMP7 worked out at 800000 M⁻¹ s⁻¹; with BMP6 it was 7.8e+06 M⁻¹ s⁻¹.

B2: IIB-Fc:ALK4-Fc heterodimer (human ActRIIB ECD-Fc paired with human ALK4 ECD-Fc) (Fc fusion)
chain 1: SGRGEAETRECIYYNANWELERTNQSGLERCEGEQDKRLHCYASWRNSSGTIELVKKGCWLDDFNCYDRQECVATEENPQVYFCCCEGNFCNERFTHLPEAGGPEVTYEPPPTAPT
chain 2: SGPRGVQALLCACTSCLQANYTCETDGACMVSIFNLDGMEHHVRTCIPKVELVPAGKPFYCLSSEDLRNTHCCYTDYCNRIDLRVPSGHLKEPEHPSMWGPVE
On to B2, for which the “IC50 of the trap for inhibition of ligand-induced SMAD2/3 (CAGA12) luciferase reporter signalling in A204 cells (ligand with the cells' receptors)” value was determined as 0.19 nM with activin A [1], 2.04 nM in [2], 0.16 nM with activin B and 0.34 nM with GDF11 [3]. The “IC50 of the trap for inhibition of ligand-induced SMAD1/5/8 (BRE) luciferase reporter signalling in T98G cells (ligand with the cells' receptors)” value with BMP9 turned out to be 8.47 nM; in the test with BMP10, 0.7 nM.

B3: IIB-Fc:ALK7-Fc heterodimer (human ActRIIB ECD-Fc paired with human ALK7 ECD-Fc) (Fc fusion)
chain 1: SGRGEAETRECIYYNANWELERTNQSGLERCEGEQDKRLHCYASWRNSSGTIELVKKGCWLDDFNCYDRQECVATEENPQVYFCCCEGNFCNERFTHLPEAGGPEVTYEPPPTAPT
chain 2: GLKCVCLLCDSSNFTCQTEGACWASVMLTNGKEQVIKSCVSLPELNAQVFCHSSNNVTKTECCFTDFCNNITLHLPTASPNAPKLGPME
In the case of B3, the “IC50 of the trap for inhibition of ligand-induced SMAD2/3 (CAGA12) luciferase reporter signalling in A204 cells (ligand with the cells' receptors)” value in the test with activin A [1] was determined as 2.86 nM; in [2] it was 9.15 nM; with activin B, 0.26 nM; in the test with GDF11 [3] it was 2.34 nM. The entries for the “IC50 of the trap for inhibition of ligand-induced SMAD1/5/8 (BRE) luciferase reporter signalling in T98G cells (ligand with the cells' receptors)” value with BMP9 and with BMP10 were 31 nM and 2.01 nM, respectively.

B4: IIB-Fc:ALK3-Fc heterodimer (human ActRIIB ECD-Fc paired with human ALK3 ECD-Fc) (Fc fusion)
chain 1: SGRGEAETRECIYYNANWELERTNQSGLERCEGEQDKRLHCYASWRNSSGTIELVKKGCWLDDFNCYDRQECVATEENPQVYFCCCEGNFCNERFTHLPEAGGPEVTYEPPPTAPT
chain 2: QNLDSMLHGTGMKSDSDQKKSENGVTLAPEDTLPFLKCYCSGHCPDDAINNTCITNGHCFAIIEEDDQGETTLASGCMKYEGSDFQCKDSPKAQLRRTIECCRTNLCNQYLQPTLPPVVIGPFFDGSIR
Turning to B4, the “IC50 of the trap for inhibition of ligand-induced SMAD2/3 (CAGA12) luciferase reporter signalling in A204 cells (ligand with the cells' receptors)” value is 2.62 nM with activin A [1], 10.8 nM in [2], 1.65 nM with activin B and 2.42 nM with GDF11 [3]. For the same molecule, the “IC50 of the trap for inhibition of ligand-induced SMAD1/5/8 (BRE) luciferase reporter signalling in T98G cells (ligand with the cells' receptors)” value was found to be 23.4 nM in the test with BMP9 and 1.1 nM with BMP10.

B5: ALK4-Fc:ALK4-Fc homodimer (R&D Systems Cat #808-AR-100) (Fc fusion, human, UniProt P36896-1 24-126, looked up)
chain: SGPRGVQALLCACTSCLQANYTCETDGACMVSIFNLDGMEHHVRTCIPKVELVPAGKPFYCLSSEDLRNTHCCYTDYCNRIDLRVPSGHLKEPEHPSMWGPVE
notes: activin receptor-like kinase 4 (ALK4) extracellular domain, human; Bought product; source: bought: R&D Systems (Cat #808-AR-100); not shown: Fc (human)
Regarding B5, in the test with activin A [1], the “IC50 of the trap for inhibition of ligand-induced SMAD2/3 (CAGA12) luciferase reporter signalling in A204 cells (ligand with the cells' receptors)” value is above 100 nM. In the test with activin A [4], the Kd was above 10 nM, the koff was above 0.01 s⁻¹ and the kon turned out to be 200000 M⁻¹ s⁻¹. Further, in the test with GDF11 [5], the Kd is above 10 nM, the koff was above 0.01 s⁻¹ and the kon came to 500000 M⁻¹ s⁻¹.

The record behind these values is PMC8443706, “Functionally diverse heteromeric traps for ligands of the transforming growth factor-β superfamily” (Scientific Reports, 2021).
